From US20160222130A1 (Astellas, published 2016)

Experiments:
Test in all cases: ELISA; Tie2-Fc coated at 1 ug/mL; signal at 100 ng/mL antibody vs convergence value on the parent
[1] = target: T1, Human Tie2 (1-452)r1-Fc (human, UniProt Q02763 23-452)
T1 construct: range 1-452
Description: (§1) The next day, the immobilized solution was removed, and the plate was washed with a TBS-T solution, and incubated for 60 minutes by the addition of 50 μL of a Blocker™ Casein in TBS (Thermo Fisher Scientific Inc., 37532) to perform blocking. The resultant was washed with a TBS-T solution, and TIE-1-Igγ1-LALA, diluted with 0.05% Tween 20 (Nacalai Tesque Inc., 28353-85)—containing Blocker™ Casein in TBS from 0.03 ng/mL to 100 ng/mL through eight steps, was added thereto in the amount of 20 μL per well. The resultant was incubated at room temperature for 90 minutes and then washed with a TBS-T solution three times, and 20 μL of a biotin-labeled anti-human kappa light chain antibody, which had been diluted to 0.1 μg/mL with 0.05% Tween 20-containing Blocker™ Casein in TBS, was added thereto. The resultant was incubated at room temperature for 60 minutes and then washed with a TBS-T solution three times, and 20 μL of alkaline phosphatase-labeled streptavidin, which had been diluted to 0.1 μg/mL with 0.05% Tween 20-containing Blocker™ Casein in TBS, was added thereto. The resultant was incubated at room temperature for 60 minutes and then washed with a TBS-T solution three times, and 50 μL of Chemiluminescent Ultra Sensitive AP Microwell and/or Membrane Substrate (450 nm), which had been 5-fold diluted with 1 mM MgCl₂-containing 20 mM TBS (pH 9.8) as a substrate, was added thereto. The resultant was incubated at room temperature under light-shielding for 40 minutes, and then luminescent intensity thereof was measured with an EnVision™ multi-label counter. The EC₅₀ value of TIE-1-Igγ1-LALA with respect to the human Tie2 (1-452)-Fc chimeric protein and 23 mutant proteins thereof were calculated. The relative value of luminescent intensity of 100 ng/mL TIE-1-Igγ1-LALA as maximum concentration point with respect to human Tie2 (1-452)-Fc chimeric protein and 23 mutant proteins thereof when the convergence value of the sigmoid curve of TIE-1-Igγ1-LALA binding to the human Tie2 (1-452)-Fc chimeric protein which was taken as 100% was calculated (Table 8 and Table 9). Further, the EC₅₀ value and the convergence value were calculated by Sigmoid-Emax model non-linear regression analysis.

[2] = target: T2, Human Tie2 (1-452)g5-Fc (human, UniProt Q02763 23-452)
T2 construct: range 1-452
Description: as §1

[3] = target: T3, human Tie2 (1-452)-Fc chimeric protein (human, UniProt Q02763 23-452)
T3 construct: range 1-452; The stated range 1-452 begins at residue 1 of the precursor
Description: as §1

T3 sequence (Q02763 other isoform, or with tags, fused parts or gaps mutant limits assumed, form in doubt): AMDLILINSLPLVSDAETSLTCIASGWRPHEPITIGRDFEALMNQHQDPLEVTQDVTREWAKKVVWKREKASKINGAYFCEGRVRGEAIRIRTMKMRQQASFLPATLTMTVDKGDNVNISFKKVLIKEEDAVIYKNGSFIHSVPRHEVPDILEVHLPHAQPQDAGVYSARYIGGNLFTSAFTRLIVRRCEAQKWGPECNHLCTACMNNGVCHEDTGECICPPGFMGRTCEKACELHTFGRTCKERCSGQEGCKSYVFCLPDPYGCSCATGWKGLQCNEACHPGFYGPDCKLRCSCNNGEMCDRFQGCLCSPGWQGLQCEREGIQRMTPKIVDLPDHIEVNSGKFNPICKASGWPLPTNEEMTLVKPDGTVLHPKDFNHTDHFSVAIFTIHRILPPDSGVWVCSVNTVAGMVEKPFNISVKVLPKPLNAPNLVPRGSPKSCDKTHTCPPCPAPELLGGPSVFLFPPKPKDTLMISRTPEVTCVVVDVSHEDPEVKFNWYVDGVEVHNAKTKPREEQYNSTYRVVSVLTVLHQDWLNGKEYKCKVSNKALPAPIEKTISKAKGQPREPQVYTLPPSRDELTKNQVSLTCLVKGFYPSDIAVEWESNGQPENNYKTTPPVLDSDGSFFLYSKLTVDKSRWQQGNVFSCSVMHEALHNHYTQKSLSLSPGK
T2 sequence (Q02763 other isoform, or with tags, fused parts or gaps limits assumed, form in doubt): as the sequence (Q02763 other isoform, or with tags, fused parts or gaps mutant limits assumed, form in doubt) above, with N175A counted along it
T1 sequence (Q02763 other isoform, or with tags, fused parts or gaps limits assumed, form in doubt): as the sequence (Q02763 other isoform, or with tags, fused parts or gaps mutant limits assumed, form in doubt) above, with R145A, H146A, E147A counted along it

B1: TIE-1-Igγ1-LALA (antibody, human IgG1, kappa, L234A L235A)
heavy: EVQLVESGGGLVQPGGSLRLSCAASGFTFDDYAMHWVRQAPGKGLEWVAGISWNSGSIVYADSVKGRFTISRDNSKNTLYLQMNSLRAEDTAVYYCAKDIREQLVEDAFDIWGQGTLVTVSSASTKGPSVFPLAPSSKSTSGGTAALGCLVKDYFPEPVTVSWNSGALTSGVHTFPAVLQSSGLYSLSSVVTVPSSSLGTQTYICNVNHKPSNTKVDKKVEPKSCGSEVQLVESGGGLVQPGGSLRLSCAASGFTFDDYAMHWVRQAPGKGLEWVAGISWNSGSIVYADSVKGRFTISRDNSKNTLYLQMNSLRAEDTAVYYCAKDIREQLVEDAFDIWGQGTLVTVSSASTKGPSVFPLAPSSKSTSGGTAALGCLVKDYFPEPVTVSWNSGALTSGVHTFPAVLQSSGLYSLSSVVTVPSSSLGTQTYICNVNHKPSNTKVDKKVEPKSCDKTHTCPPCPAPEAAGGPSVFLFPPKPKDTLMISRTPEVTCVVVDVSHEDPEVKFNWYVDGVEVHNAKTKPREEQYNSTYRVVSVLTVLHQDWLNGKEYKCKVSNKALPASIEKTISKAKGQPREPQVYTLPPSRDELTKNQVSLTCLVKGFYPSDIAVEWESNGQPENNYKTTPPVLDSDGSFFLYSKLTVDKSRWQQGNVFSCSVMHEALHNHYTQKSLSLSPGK
light: DIQMTQSPSSLSASVGDRVTITCRSSQSLLHSHRYNYLDWYQQKPGKAPKLLIYLGSNRASGVPSRFSGSGSGTDFTLTISSVQPEDFATYYCMQTLQTPLTFGQGTKVEIKRTVAAPSVFIFPPSDEQLKSGTASVVCLLNNFYPREAKVQWKVDNALQSGNSQESVTEQDSKDSTYSLSSTLTLSKADYEKHKVYACEVTHQGLSSPVTKSFNRGEC
notes: Tandem tetravalent format: two heavy chains (VH-CH1-linker-VH-CH1-CH2-CH3) and four light chains; also called tetravalent anti-human Tie2 antibody with L234A, L235A and P331S
[1]
  Relative value (%) of luminescent intensity: 97%
[2]
  Relative value (%) of luminescent intensity: 91%
[3]
  Relative value (%) of luminescent intensity: 97%
